Experimental data: patent US12134663B2, “Cationic peptides for activating Lck” (Interk Peptide Therapeutics Limited, priority 2018, dated 2024)
Entries after “also recorded” stand apart in the source; their conditions may differ. Where a SMILES comes first, the peptide text is derived from it. Where no end group is shown, it is not given here. [ ]: non-standard residue; d: D form. ξ: configuration not given here. ξGly(decyl) = CCCCCCCCCCC(N)C(=O)O; 2Adod = 2-amino-dodecanoic acid

Tests used:
K562 cells = test: Specific cytotoxicity of Calcein-AM stained K562 cells in PBMC co-culture; format: cell-based; settings: PBMC pre-treated 0.08-1.25 μM 48 hrs, 5:1 ratio, 4 hrs; greater than IFN-α 2A; data not shown
Protocol: In brief, PBMC were incubated for 48 hrs then co-cultured together with Calcein AM stained K562 cells stimulated with or without human recombinant IFN-α 2A (5 ng/mL) for 4 hrs. Supernatants were assessed for Calcein green fluorescence intensity using the GloMax® Discover and percentage specific cytotoxicity was calculated. Data shown indicates mean percentage specific cytotoxicity +/− SEM, n=4. Data were analysed by paired t test in comparison to the vehicle control, *p<0.05.
PBMC were also pre-treated with or without the Lck activating polypeptides RSKAKNPLY-RRRRRRRRR (SEQ ID NO: 24, IK14800), RVKVKVVVV-RRRRRRRRR (SEQ ID NO: 58, IK15800), RSKAKNPLY-RRRRRRRRR-(2Adod)4-NH2 (SEQ ID NO: 65, IK14804) and RVKVKVVVV-RRRRRRRRR-(2Adod)4-NH2 (SEQ ID NO: 66, IK15804) (0.08-1.25 μM) for 48 hrs, then co-cultured with Calcein AM stained K562 cells at a 5:1 ratio and incubated for a further 4 hrs. Supernatants were assessed for Calcein green fluorescence intensity using the GloMax® Discover and percentage specific cytotoxicity was calculated. Data shown indicates mean percentage specific cytotoxicity +/− SEM, n=4. Data were analysed by repeated measures two-way ANOVA with Holm-Sidak's post-test comparing peptide treatment with vehicle control, *p<0.05, **P<0.01, ***P<0.001, ****p<0.0001.

Lck [1] = target: T1, Lck (Homo sapiens, UniProt P06239); test: Lck Activity above control (1 µM) | Lck
T1 construct: purchased Eurofins Pharma Discovery Services UK Limited
Protocol: (§1) Table printed on a drawing sheet, FIG. 2
Head of the field: Lck Activity above control (1 µM) | Lck
(§2) First copying reader's note: Kinase activity above control for each Src family kinase at 1 µM peptide; the cell for IK00800/Fgr is printed as '%' without a digit.
Where the first naming reader finds the target: head: Lck Activity above control (1 µM) | Lck

Fgr = test: Lck Activity above control (1 µM) | Fgr
Protocol: as §1
Head of the field: Lck Activity above control (1 µM) | Fgr
as §2
Where the first naming reader finds the target: head: Lck Activity above control (1 µM) | Fgr

Lck [2] = target: T1, Lck; test: In vitro Lck activation kinase study (Eurofins); format: biochemical; settings: for Lck activation (in words): peptide 1 μM where stated
Protocol: The ability of polypeptides of the present invention to activate Lck was examined in vitro. Lck is member of the Src family of tyrosine kinases. […] All results in are percentage Lck activity relative to control (100%).
Test polypeptides were assessed at a concentration of 1.0 μM.
The ability of polypeptides of the present invention to activate Src family kinases was examined in vitro. Kinase activation studies utilising peptides were carried out as described in Example 1, and all kinase activity values are shown as percentage relative to control.
The ability of polypeptides comprising both lysine and arginine to activate Lck in vitro was examined. Lck activation studies utilising peptides were carried out as described in Example 1, and all kinase activity values are shown as percentage relative to control.

wild-type Jurkat cells = test: IL-2 secretion in stimulated wild-type Jurkat cells (ELISA); format: cell-based, human; settings: biotinylated anti-CD3, anti-CD28, avidin; 48 h exposure
Protocol: In brief, wild-type Jurkat cells (an immortalised line of human T lymphocyte cells) were stimulated by exposure to biotinylated anti-CD3 antibody in the presence of anti-CD28 antibody and avidin. During the culture period (48 hours or 72 hours) cells were exposed to test polypeptides. Cell supernatant was assayed for IL-2 at the end of 48 or 72 hours using a standard commercially available ELISA kit as described above.
In brief, cells were seeded at 1 million cells per well (12 well plate, 2 mL volume) and stimulated with Biotin-CD3, CD28, and avidin (5:5:1.25 μg). The cells were then treated with IK14804, and then incubated for 48 hours at 37° C. The supernatant (100 uL, n=3), was then analyzed for IL-2 content.
In brief, wild-type Jurkat cells (am immortalised line of human T lymphocyte cells) were stimulated by exposure to biotinylated anti-CD3 antibody in the presence of anti-CD28 antibody and avidin. Cells were seeded at 1 million cells per well (12 well plate, 2 mL volume) and stimulated with Biotin-anti-CD3, anti-CD28, and avidin (5:5:1.25 μg). Cells were treated with the test peptides and then incubated for 48 hours at 37° C. The supernatants (100 ul, n=3), were then analysed for IL-2 and IL-12 content. During the culture period (48 hours) cells were exposed to test polypeptide RSKAKNPLYR-(2Adod)4-NH2 (SEQ ID NO: 128). Cell supernatant was assayed for IL-2 and IL-12 at the end of 48 hours using standard commercially available ELISA kit as described above.

Lck(h) = target: T2, Lck(h) (Homo sapiens, UniProt P06239); test: Western blot of Lck phosphorylation (4G10 and anti-pY394 antibodies); format: biochemical; settings: peptide 1 and 10 μM, with ATP, 40 minutes
T2 construct: purchased Eurofins Pharma Discovery Services UK Limited
Protocol: Western blot studies were performed by Eurofins Pharma Discovery Services UK Limited (Dundee, United Kingdom). […] Reactions were allowed to proceed for 40 minutes at room temperature before being stopped by the addition of SDS-sample buffer. In each case the Lck enzyme was diluted to yield 20 ng per 25 μl reaction. Appropriate controls in the absence of compound and peptide were also run as well as an untreated sample of both the Lck(h) and Lck(h) activated kinases. The resulting samples were then subjected to SDS-PAGE and western blot analysis using the antibodies 4G10 (anti-phospho-tyrosine antibody) (see FIG. 3) and anti-pY394 Lck (R&D Systems MAB7500) (see FIG. 2). An additional blot using the secondary detection antibody (anti-mouse-HRP) was also performed. The membranes were stained by Ponceau S to verify sample loading and effective protein transfer. The 4G10 antibody is a general anti-phospho-tyrosine antibody and there are several tyrosine residues in Lck but only one auto-phosphorylating tyrosine residue, i.e., at position Y394. […] Samples were as follows (numbers correspond to the lanes on the gel): • 1. Molecular weight markers • 2. Standard Lck • 3. Standard Lck+peptide substrate+ATP (no test peptide) • 4. Standard Lck−peptide substrate+ATP (no test peptide) • 5. Standard Lck+ATP+10Arg peptide (SEQ ID NO: 7, IK00100; 1 μM) (no peptide substrate) • 6. Standard Lck+ATP+10 Arg peptide (SEQ ID NO: 7, IK00100; 10 μM) (no peptide substrate) • 7. Standard Lck+ATP+8 Arg peptide (SEQ ID NO: 4, IK00800; 1 μM) (no peptide substrate) • 8. Standard Lck+ATP+8 Arg peptide (SEQ ID NO: 41K00800; 10 μM) (no peptide substrate) • 9. 10 Arg (SEQ ID NO: 7, IK00100) (10 μM) (test peptide only) • 10. 8 Arg (SEQ ID NO: 4, IK00800) (10 μM) (test peptide only)
The steps of the western blot protocol were as below: • SDS-PAGE gel: 50 minutes at 200V • Western blot transfer: 90 minutes at 25V • Membrane: Nitrocellulose Pre-Cut Blotting Membranes 0.2 μm pore size (LC2000 (Life Tech)) • Ponceau stain: 0.1% Ponceau S (w/v) in 5% acetic acid • The membrane was blocked with 10 mL PBST and 10% BSA for 1 hour before application of primary and secondary antibodies. Primary Antibodies: • 1. Anti-4G10 (Millipore 05-777) 1/1000 in PBST with overnight incubation at 4° C. followed by washing with 4×20 mL PBST. • 2. Anti-pY394 Lck (R&D Systems) 1/2500 in PBST with overnight incubation at 4° C. followed by washing with 4×20 mL PBST. Secondary Antibody:
Anti-mouse-hrp (Sigma A5278) 1/5000 in PBST followed by washing with 4×20 mL PBST for 5 hours on a spiral shaker at room temperature. Detection was performed via SuperSignal ELISA Pico Chemiluminescent Substrate—37070 (Pierce).

T1 sequence (P06239 whole entry): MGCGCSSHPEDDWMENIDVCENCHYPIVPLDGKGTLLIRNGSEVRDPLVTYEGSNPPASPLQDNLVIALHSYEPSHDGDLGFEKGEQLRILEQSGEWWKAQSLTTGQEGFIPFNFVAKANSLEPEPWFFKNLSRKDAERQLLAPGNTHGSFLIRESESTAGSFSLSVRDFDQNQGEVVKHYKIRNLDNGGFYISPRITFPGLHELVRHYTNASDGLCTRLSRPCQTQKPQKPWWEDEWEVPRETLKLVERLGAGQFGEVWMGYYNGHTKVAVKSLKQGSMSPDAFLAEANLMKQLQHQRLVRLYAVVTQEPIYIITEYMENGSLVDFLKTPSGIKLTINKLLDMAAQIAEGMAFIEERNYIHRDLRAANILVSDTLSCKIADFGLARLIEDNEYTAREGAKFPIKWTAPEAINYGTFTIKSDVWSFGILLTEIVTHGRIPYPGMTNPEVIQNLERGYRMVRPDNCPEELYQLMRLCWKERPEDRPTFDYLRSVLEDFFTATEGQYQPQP
T2 sequence (P06239 whole entry): as above

## CCCCCCCCCCC(NC(=O)C(CCCCCCCCCC)NC(=O)C(CCCCCCCCCC)NC(=O)C(CCCCCCCCCC)NC(=O)[C@H](CCCNC(=N)N)NC(=O)[C@H](CCCNC(=N)N)NC(=O)[C@H](CCCNC(=N)N)NC(=O)[C@H](CCCNC(=N)N)NC(=O)[C@H](CCCNC(=N)N)NC(=O)[C@H](CCCNC(=N)N)NC(=O)[C@H](CCCNC(=N)N)NC(=O)[C@H](CCCNC(=N)N)NC(=O)[C@H](CCCNC(=N)N)NC(=O)[C@H](Cc1ccc(O)cc1)NC(=O)[C@H](CC(C)C)NC(=O)[C@@H]1CCCN1C(=O)[C@H](CC(N)=O)NC(=O)[C@H](CCCCN)NC(=O)[C@H](C)NC(=O)[C@H](CCCCN)NC(=O)[C@H](CO)NC(=O)[C@@H](N)CCCNC(=N)N)C(N)=O (stereo partly shown) [IK14804, RSKAKNPLYR-RRRRRRRR-(2Adod)4-NH2] (H-RSKAKNPLYRRRRRRRRR[ξGly(decyl)][ξGly(decyl)][ξGly(decyl)][ξGly(decyl)]-NH2)
K562 cells
  percentage of specific cytotoxicity: increased the percentage of specific cytotoxicity

## RRRRRRRRRR [IK00100] [listing 1 of 2 here]
Lck [1]
  Lck Activity above control (1 µM) | Lck: 389%
Fgr
  Lck Activity above control (1 µM) | Fgr: 0%

## RSKAKNPLYRRRRRRRRR-NH2 [IK14800, RSKAKNPLY-RRRRRRRRR-NH2]
K562 cells
  percentage of specific cytotoxicity: increased the percentage of specific cytotoxicity
Lck [2]; peptide 1 μM, relative to control
  Lck activation: 496%

## RRRRRRRR [IK00800] [listing 1 of 2 here]
Lck [1]
  Lck Activity above control (1 µM) | Lck: 126%

## RSKAKNPLY [IK94000]
wild-type Jurkat cells
  IL-2 secretion relative to control: increase IL-2 secretion
Lck [2]
  Lck activation (in words): no Lck activation
Lck [2]; listed as IK09400
  Lck activation (in words): do not activate Lck

## RRRRRRRRRR [IK00100] [listing 2 of 2 here]
Lck(h); listed as 10 Arg
  phosphorylation at Y394 of Lck (anti-pY394 antibody): significant increase in the level of phosphorylation
Lck(h); listed as 10Arg
  level of phosphorylation on Lck (anti-phospho tyrosine 4G10 antibody): significant increase in the level of phosphorylation; also recorded: increased with increasing concentrations
  phosphorylation at Y394 of Lck (anti-pY394 antibody): Increased auto-phosphorylation was associated with increasing concentration

## rskaknplyrrrrrrrrr ([dR][dS][dK][dA][dK][dN][dP][dL][dY][dR][dR][dR][dR][dR][dR][dR][dR][dR]) [IKD14800]
Fgr
  Lck Activity above control (1 µM) | Fgr: 0%

## HHHHHHHHHH [10His]
Lck [1]
  Lck Activity above control (1 µM) | Lck: 0%
Fgr
  Lck Activity above control (1 µM) | Fgr: 0%

## RSKAKNPLY-RRRRRRRRR-NH2 (RSKAKNPLYRRRRRRRRR-NH2) [IK14800]
Lck [1]
  Lck Activity above control (1 µM) | Lck: 578%
Fgr
  Lck Activity above control (1 µM) | Fgr: 0%

## RSKAKNPLYR (RSKAKNPLYR-{2Adod-2Adod-2Adod-2Adod-NH2}) [IK14000]
wild-type Jurkat cells
  IL-2 secretion relative to control: increase IL-2 secretion
Lck [2]
  Lck activation (in words): do not activate Lck
Lck [2]; listed as RSKAKNPLYR
  Lck activation (in words): no Lck activation

## KKKKKKKKKK [10Lys]
Fgr
  Lck Activity above control (1 µM) | Fgr: 0%

## RVKVKVVVVRRRRRRRRR-NH2 [IK15800, RVKVKVVVV-RRRRRRRRR]
K562 cells
  percentage of specific cytotoxicity: increased the percentage of specific cytotoxicity

## CCCCCCCCCCC(NC(=O)C(CCCCCCCCCC)NC(=O)C(CCCCCCCCCC)NC(=O)C(CCCCCCCCCC)NC(=O)[C@H](CCCNC(=N)N)NC(=O)[C@H](CCCNC(=N)N)NC(=O)[C@H](CCCNC(=N)N)NC(=O)[C@H](CCCNC(=N)N)NC(=O)[C@H](CCCNC(=N)N)NC(=O)[C@H](CCCNC(=N)N)NC(=O)[C@H](CCCNC(=N)N)NC(=O)[C@H](CCCNC(=N)N)NC(=O)[C@H](CCCNC(=N)N)NC(=O)[C@@H](NC(=O)[C@@H](NC(=O)[C@@H](NC(=O)[C@@H](NC(=O)[C@H](CCCCN)NC(=O)[C@@H](NC(=O)[C@H](CCCCN)NC(=O)[C@@H](NC(=O)[C@@H](N)CCCNC(=N)N)C(C)C)C(C)C)C(C)C)C(C)C)C(C)C)C(C)C)C(N)=O (stereo partly shown) [IK15804, RVKVKVVVVR-RRRRRRRR-(2Adod)4-NH2] (H-RVKVKVVVVRRRRRRRRR[ξGly(decyl)][ξGly(decyl)][ξGly(decyl)][ξGly(decyl)]-NH2)
K562 cells
  percentage of specific cytotoxicity: increased the percentage of specific cytotoxicity

## RVKVKVVVV-RRRRRRRRR (RVKVKVVVVRRRRRRRRR) [IK15800]
Lck [1]
  Lck Activity above control (1 µM) | Lck: 593%
Fgr
  Lck Activity above control (1 µM) | Fgr: 0%

## RRRRRRRR [IK00800] [listing 2 of 2 here]
Lck(h); listed as 8 Arg
  phosphorylation at Y394 of Lck (anti-pY394 antibody): significant increase in the level of phosphorylation
Lck(h); listed as 8Arg
  level of phosphorylation on Lck (anti-phospho tyrosine 4G10 antibody): significant increase in the level of phosphorylation; also recorded: increased with increasing concentrations
  phosphorylation at Y394 of Lck (anti-pY394 antibody): Increased auto-phosphorylation was associated with increasing concentration
